Drawing on the supplement of paper PMC10567573, this text covers protein stability index for 94 variants.

To fix the notation:
B1: MCOLN1 (parent)
chain: EEEDLRRRLKYFFMSPCDKFRAKG
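Further: lentivirally expressed fusions sorted by FACS into six bins by GFP to DsRed ratio, PSI derived from sequencing read proportions per bin multiplied by bin number.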

In the data set the parent is B1. Kind of data set: protein stability index of a GFP-peptide fusion (GPS, HEK-293T) (PSI 1-6); higher = more stable. Particulars: c terminus: a fixed tail appended.
As to EEEDLRRRLKYFFMFPCDKFRAKG [S15F], the protein stability index amounted to 2.26.

For the variant EEEDLRRRLKYFFMQPCDKFRAKG [S15Q], the protein stability index amounted to 2.84.

For the variant EEEDLRRRLKYFFMLPCDKFRAKG [S15L], the protein stability index was determined as 2.05.

Consider EEEDLRRRLKYFFMNPCDKFRAKG [S15N], for which the protein stability index amounted to 2.62.

Consider EEEDLRRRLKYFFMEPCDKFRAKG [S15E], for which the protein stability index is 3.26.

EEEDLRRRLKYFFMRPCDKFRAKG [S15R]: the protein stability index came to 2.91.

Turning to EEEDLRRRLKYFFMHPCDKFRAKG [S15H], the protein stability index is 2.79.

For EEEDLRRRLKYFFMAPCDKFRAKG [S15A], the protein stability index worked out at 2.42.

As for EEEDLRRRLKYFFMWPCDKFRAKG [S15W], the protein stability index is 2.49.

As to EEEDLRRRLKYFFMPPCDKFRAKG [S15P], the protein stability index came out at 1.65.

On to EEEDLRRRLKYFFMGPCDKFRAKG [S15G], for which the protein stability index stood at 2.77.

Turning to EEEDLRRRLKYFFMIPCDKFRAKG [S15I], the protein stability index was found to be 1.82.

For the variant EEEDLRRRLKYFFMCPCDKFRAKG [S15C], the protein stability index was found to be 1.66.

EEEDLRRRLKYFFMYPCDKFRAKG [S15Y]: the protein stability index was found to be 2.62.

As for EEEDLRRRLKYFFMKPCDKFRAKG [S15K], the protein stability index was 2.63.

EEEDLRRRLKYFFMDPCDKFRAKG [S15D]: the protein stability index is 3.4.

Turning to EEEDLRRRLKYFFMTPCDKFRAKG [S15T], the protein stability index worked out at 3.1.

For the variant EEEDLRRRLKYFFMMPCDKFRAKG [S15M], the protein stability index turned out to be 1.94.

On to EEEDLRRRLKYFFMVPCDKFRAKG [S15V], for which the protein stability index was 2.

For EEEDLRRRLKYQFMSPCDKFRAKG [F12Q], the protein stability index came to 3.53.

Take EEEDLRRRLKYNFMSPCDKFRAKG [F12N]: the protein stability index came out at 4.11.

As to EEEDLRRRLKYRFMSPCDKFRAKG [F12R], the protein stability index is 2.91.

Take EEEDLRRRLKYAFMSPCDKFRAKG [F12A]: the protein stability index came to 3.53.

In the case of EEEDLRRRLKYCFMSPCDKFRAKG [F12C], the protein stability index was 3.27.

Turning to EEEDLRRRLKYEFMSPCDKFRAKG [F12E], the protein stability index worked out at 3.9.

In the case of EEEDLRRRLKYPFMSPCDKFRAKG [F12P], the protein stability index is 3.56.

As to EEEDLRRRLKYLFMSPCDKFRAKG [F12L], the protein stability index was 3.73.

Take EEEDLRRRLKYHFMSPCDKFRAKG [F12H]: the protein stability index was 2.5.

Regarding EEEDLRRRLKYKFMSPCDKFRAKG [F12K], the protein stability index amounted to 2.98.

EEEDLRRRLKYDFMSPCDKFRAKG [F12D]: the protein stability index was 3.61.

On to EEEDLRRRLKYWFMSPCDKFRAKG [F12W], for which the protein stability index came out at 2.39.

As for EEEDLRRRLKYSFMSPCDKFRAKG [F12S], the protein stability index was 3.58.

With EEEDLRRRLKYTFMSPCDKFRAKG [F12T], the protein stability index was 3.62.

For EEEDLRRRLKYMFMSPCDKFRAKG [F12M], the protein stability index amounted to 2.91.

As to EEEDLRRRLKYIFMSPCDKFRAKG [F12I], the protein stability index was determined as 2.93.

Turning to EEEDLRRRLKYGFMSPCDKFRAKG [F12G], the protein stability index was found to be 3.43.

Take EEEDLRRRLKYYFMSPCDKFRAKG [F12Y]: the protein stability index came out at 2.69.

As to EEEDLRRRLKYVFMSPCDKFRAKG [F12V], the protein stability index amounted to 2.65.

In the case of EEEDLRRRIKYFFMSPCDKFRAKG [L9I], the protein stability index came to 1.92.

On to EEEDLRRRYKYFFMSPCDKFRAKG [L9Y], for which the protein stability index came to 2.97.

For the variant EEEDLRRRFKYFFMSPCDKFRAKG [L9F], the protein stability index was determined as 2.96.

With EEEDLRRRWKYFFMSPCDKFRAKG [L9W], the protein stability index worked out at 2.32.

EEEDLRRRGKYFFMSPCDKFRAKG [L9G]: the protein stability index worked out at 3.64.

For EEEDLRRRCKYFFMSPCDKFRAKG [L9C], the protein stability index was 3.03.

Take EEEDLRRRHKYFFMSPCDKFRAKG [L9H]: the protein stability index was 3.32.

As for EEEDLRRRMKYFFMSPCDKFRAKG [L9M], the protein stability index is 3.27.

As for EEEDLRRRVKYFFMSPCDKFRAKG [L9V], the protein stability index stood at 3.15.

In the case of EEEDLRRRNKYFFMSPCDKFRAKG [L9N], the protein stability index was determined as 3.5.

On to EEEDLRRRSKYFFMSPCDKFRAKG [L9S], for which the protein stability index turned out to be 3.91.

In the case of EEEDLRRRAKYFFMSPCDKFRAKG [L9A], the protein stability index is 3.3.

Turning to EEEDLRRRDKYFFMSPCDKFRAKG [L9D], the protein stability index was 4.1.

Consider EEEDLRRREKYFFMSPCDKFRAKG [L9E], for which the protein stability index is 4.4.

As for EEEDLRRRRKYFFMSPCDKFRAKG [L9R], the protein stability index was determined as 3.35.

With EEEDLRRRTKYFFMSPCDKFRAKG [L9T], the protein stability index is 3.33.

As to EEEDLRRRPKYFFMSPCDKFRAKG [L9P], the protein stability index worked out at 3.64.

With EEEDLRRRQKYFFMSPCDKFRAKG [L9Q], the protein stability index was 3.7.

EEEDLRRRKKYFFMSPCDKFRAKG [L9K]: the protein stability index amounted to 2.89.

As for EEEDLRRRLKKFFMSPCDKFRAKG [Y11K], the protein stability index was determined as 2.65.

Consider EEEDLRRRLKDFFMSPCDKFRAKG [Y11D], for which the protein stability index came to 2.87.

With EEEDLRRRLKNFFMSPCDKFRAKG [Y11N], the protein stability index is 3.23.

As for EEEDLRRRLKGFFMSPCDKFRAKG [Y11G], the protein stability index was 3.2.

Consider EEEDLRRRLKIFFMSPCDKFRAKG [Y11I], for which the protein stability index is 1.93.

For the variant EEEDLRRRLKLFFMSPCDKFRAKG [Y11L], the protein stability index is 2.23.

Turning to EEEDLRRRLKRFFMSPCDKFRAKG [Y11R], the protein stability index turned out to be 2.38.

As for EEEDLRRRLKPFFMSPCDKFRAKG [Y11P], the protein stability index came to 3.33.

On to EEEDLRRRLKWFFMSPCDKFRAKG [Y11W], for which the protein stability index worked out at 1.42.

As to EEEDLRRRLKCFFMSPCDKFRAKG [Y11C], the protein stability index is 2.77.

As for EEEDLRRRLKHFFMSPCDKFRAKG [Y11H], the protein stability index turned out to be 2.46.

EEEDLRRRLKAFFMSPCDKFRAKG [Y11A]: the protein stability index amounted to 2.9.

EEEDLRRRLKTFFMSPCDKFRAKG [Y11T]: the protein stability index amounted to 2.82.

Consider EEEDLRRRLKVFFMSPCDKFRAKG [Y11V], for which the protein stability index stood at 2.93.

As to EEEDLRRRLKSFFMSPCDKFRAKG [Y11S], the protein stability index worked out at 2.88.

EEEDLRRRLKQFFMSPCDKFRAKG [Y11Q]: the protein stability index turned out to be 3.25.

Turning to EEEDLRRRLKFFFMSPCDKFRAKG [Y11F], the protein stability index came out at 2.88.

Turning to EEEDLRRRLKMFFMSPCDKFRAKG [Y11M], the protein stability index was determined as 2.79.

With EEEDLRRRLKEFFMSPCDKFRAKG [Y11E], the protein stability index worked out at 3.73.

In the case of EEEDLRRRLKYFFMSPNDKFRAKG [C17N], the protein stability index was 2.89.

Take EEEDLRRRLKYFFMSPFDKFRAKG [C17F]: the protein stability index amounted to 2.1.

As to EEEDLRRRLKYFFMSPVDKFRAKG [C17V], the protein stability index was 2.53.

As to EEEDLRRRLKYFFMSPLDKFRAKG [C17L], the protein stability index was found to be 2.19.

As for EEEDLRRRLKYFFMSPGDKFRAKG [C17G], the protein stability index turned out to be 2.69.

Turning to EEEDLRRRLKYFFMSPSDKFRAKG [C17S], the protein stability index is 2.54.

Regarding EEEDLRRRLKYFFMSPRDKFRAKG [C17R], the protein stability index is 1.58.

For EEEDLRRRLKYFFMSPADKFRAKG [C17A], the protein stability index stood at 2.21.

Regarding EEEDLRRRLKYFFMSPKDKFRAKG [C17K], the protein stability index is 2.1.

For EEEDLRRRLKYFFMSPHDKFRAKG [C17H], the protein stability index amounted to 2.61.

For the variant EEEDLRRRLKYFFMSPDDKFRAKG [C17D], the protein stability index came to 3.08.

On to EEEDLRRRLKYFFMSPIDKFRAKG [C17I], for which the protein stability index stood at 2.59.

For the variant EEEDLRRRLKYFFMSPMDKFRAKG [C17M], the protein stability index turned out to be 1.97.

With EEEDLRRRLKYFFMSPWDKFRAKG [C17W], the protein stability index is 2.13.

As for EEEDLRRRLKYFFMSPPDKFRAKG [C17P], the protein stability index stood at 2.9.

As for EEEDLRRRLKYFFMSPEDKFRAKG [C17E], the protein stability index turned out to be 3.23.

Turning to EEEDLRRRLKYFFMSPQDKFRAKG [C17Q], the protein stability index worked out at 3.58.

For the variant EEEDLRRRLKYFFMSPTDKFRAKG [C17T], the protein stability index stood at 2.19.
